Like-named read-outs stand apart in the source and are kept apart here.
Tests used:
[1] = test system: T1, Cas12i1 (IVTT-expressed) (uncultured freshwater metagenome); conditions: IVTT gene silencing, after 400 min
T1 sequence: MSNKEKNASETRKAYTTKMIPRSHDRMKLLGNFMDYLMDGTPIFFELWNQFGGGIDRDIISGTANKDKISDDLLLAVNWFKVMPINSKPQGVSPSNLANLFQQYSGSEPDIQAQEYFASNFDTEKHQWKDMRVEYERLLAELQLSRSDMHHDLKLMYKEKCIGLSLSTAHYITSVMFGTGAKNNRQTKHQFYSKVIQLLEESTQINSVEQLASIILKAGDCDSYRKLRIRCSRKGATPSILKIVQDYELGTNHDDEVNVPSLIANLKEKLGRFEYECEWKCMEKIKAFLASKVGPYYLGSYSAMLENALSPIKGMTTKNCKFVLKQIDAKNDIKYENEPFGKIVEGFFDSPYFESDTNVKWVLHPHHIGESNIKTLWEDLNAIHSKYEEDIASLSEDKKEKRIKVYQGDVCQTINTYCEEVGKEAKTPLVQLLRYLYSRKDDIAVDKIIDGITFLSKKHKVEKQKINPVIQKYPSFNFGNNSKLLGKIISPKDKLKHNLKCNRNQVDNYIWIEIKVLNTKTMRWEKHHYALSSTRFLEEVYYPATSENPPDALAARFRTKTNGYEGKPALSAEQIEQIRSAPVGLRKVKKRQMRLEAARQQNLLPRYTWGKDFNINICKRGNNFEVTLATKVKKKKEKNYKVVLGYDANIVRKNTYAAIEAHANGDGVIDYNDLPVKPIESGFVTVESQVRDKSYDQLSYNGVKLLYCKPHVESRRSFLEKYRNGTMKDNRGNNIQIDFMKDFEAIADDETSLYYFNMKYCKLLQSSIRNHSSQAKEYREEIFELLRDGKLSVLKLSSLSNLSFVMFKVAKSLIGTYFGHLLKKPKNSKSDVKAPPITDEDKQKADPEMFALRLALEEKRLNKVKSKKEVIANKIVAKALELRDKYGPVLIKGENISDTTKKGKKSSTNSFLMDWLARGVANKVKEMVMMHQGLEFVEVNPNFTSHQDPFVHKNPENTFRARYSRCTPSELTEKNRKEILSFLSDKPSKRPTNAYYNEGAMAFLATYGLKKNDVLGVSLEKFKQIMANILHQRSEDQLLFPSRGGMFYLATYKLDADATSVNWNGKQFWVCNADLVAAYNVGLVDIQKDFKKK

[2] = test system: T2, Cas12i2 mammalian construct (uncultured freshwater lake metagenome); assay: cell_activity; conditions: PAM TTC; 293T cells, 72 h; indels centred around +20 from PAM
T2 sequence: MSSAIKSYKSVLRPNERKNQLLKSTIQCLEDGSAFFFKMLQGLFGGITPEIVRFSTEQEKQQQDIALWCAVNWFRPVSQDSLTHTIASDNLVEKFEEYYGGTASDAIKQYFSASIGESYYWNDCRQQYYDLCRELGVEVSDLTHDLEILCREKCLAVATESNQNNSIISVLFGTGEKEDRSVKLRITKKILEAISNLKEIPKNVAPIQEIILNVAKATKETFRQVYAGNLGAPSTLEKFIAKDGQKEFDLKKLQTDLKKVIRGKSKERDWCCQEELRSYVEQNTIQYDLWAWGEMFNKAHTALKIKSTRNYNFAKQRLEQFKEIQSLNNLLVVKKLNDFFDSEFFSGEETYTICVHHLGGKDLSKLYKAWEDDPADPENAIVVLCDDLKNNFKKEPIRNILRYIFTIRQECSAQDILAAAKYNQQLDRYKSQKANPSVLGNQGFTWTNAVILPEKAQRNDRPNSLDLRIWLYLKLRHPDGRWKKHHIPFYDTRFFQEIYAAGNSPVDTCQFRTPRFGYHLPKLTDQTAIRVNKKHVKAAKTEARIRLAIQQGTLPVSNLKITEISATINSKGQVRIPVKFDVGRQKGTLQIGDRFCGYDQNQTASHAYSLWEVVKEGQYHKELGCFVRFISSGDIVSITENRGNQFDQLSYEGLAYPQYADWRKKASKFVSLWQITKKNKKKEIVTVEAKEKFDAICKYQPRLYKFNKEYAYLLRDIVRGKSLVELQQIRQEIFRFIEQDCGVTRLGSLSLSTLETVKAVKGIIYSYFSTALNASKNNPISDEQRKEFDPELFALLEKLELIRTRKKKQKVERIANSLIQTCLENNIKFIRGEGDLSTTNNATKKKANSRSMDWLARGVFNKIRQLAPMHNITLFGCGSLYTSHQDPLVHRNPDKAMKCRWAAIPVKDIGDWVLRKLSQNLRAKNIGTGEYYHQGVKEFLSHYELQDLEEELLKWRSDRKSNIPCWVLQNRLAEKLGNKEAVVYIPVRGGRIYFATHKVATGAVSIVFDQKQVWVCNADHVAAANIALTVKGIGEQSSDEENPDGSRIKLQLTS

[3] = test system: T1, Cas12i1 (IVTT-expressed) (uncultured freshwater metagenome); conditions: IVTT gene silencing

GFP guide complementary to template strand ; GFP plasmid (sigma 28 promoter)
activity (fold GFP depletion) [1]: 2

VEGFA guide for Cas12i2 (pre-crRNA) ; VEGFA locus target, TTC PAM
activity [2]: 13 % indel

GFP guide complementary to coding strand ; GFP plasmid (sigma 28 promoter)
activity (fold GFP depletion) [3]: > 4
